Molecular target: T1, ZIKV E80 (寨卡病毒包膜蛋白N端80%区域, 氨基酸1-409) (Zika virus (2015 South American …, UniProt A0A024B7W1 291-699))
T1 construct: also called ZKE80
Experiment: BLI (Octet-Red), biotinylated ZIKV E80 on streptavidin sensor, antibody at 40-0.064 ug/ml in solution

T1 sequence (A0A024B7W1 291-699): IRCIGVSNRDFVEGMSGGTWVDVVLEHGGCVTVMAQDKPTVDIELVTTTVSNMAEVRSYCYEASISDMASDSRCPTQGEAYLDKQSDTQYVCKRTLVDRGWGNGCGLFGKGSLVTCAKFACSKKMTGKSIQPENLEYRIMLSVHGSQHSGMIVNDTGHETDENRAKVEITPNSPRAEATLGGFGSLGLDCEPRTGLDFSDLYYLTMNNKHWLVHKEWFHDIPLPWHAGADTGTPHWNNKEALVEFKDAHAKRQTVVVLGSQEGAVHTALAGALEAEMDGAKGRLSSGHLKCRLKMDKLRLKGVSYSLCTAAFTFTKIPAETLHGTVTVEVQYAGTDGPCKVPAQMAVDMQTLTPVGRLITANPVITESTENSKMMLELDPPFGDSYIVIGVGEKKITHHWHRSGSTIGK

B1: 单克隆抗体5F8 (antibody, V domains shown)
VH: QVQLQQSGAELVRPGVSAKISCKASGYIFTDYAMHWVKQSHAKSLEWIGLISTKSGAANYNQKFTDKATLTVDKSSSTAYLELARLTSEDSAIYYCARNDYLAWLPYWGQGTLVTVSA
VL: DVLMTQTPLSLPVSLGDHASISCRSSQSIVHSNGNTYLEWYLQKPGQSPKLLIYKVSYRFSGVPDRFSGSGSGTDFTLKISRVEAEDLGVYYCFQGSHVPWTFGGGTKLEIK
notes: also called 单抗5F8; 重组5F8
- Kd: 15 nM

Source: patent publication CN109081868A (INST PASTEUR SHANGHAI CAS, dated 2018)
